Experimental data from publication PMC4931634.

Experiments:
[1] = target: HIV-1 subtype C TV1.C gp120 (reference standard lot) (HIV-1 group M subtype C, strain TV1.C); experiment: non-reduced SDS-PAGE; purified gp120 reference material; the dimer band disappeared completely upon reduced SDS-PAGE
[2] = target: HIV-1 subtype C 1086.C gp120 (reference standard lot) (HIV-1 group M subtype C, strain 1086.C); experiment: as above

| Substance | stoichiometry N [1] | stoichiometry N [2] |
| --- | --- | --- |
| HIV-1 subtype C TV1.C gp120 (reference standard lot) (natural protein) | 2 |  |
| HIV-1 subtype C 1086.C gp120 (reference standard lot) (natural protein) |  | 2 |
